Results from patent US20180215825A1 (BEIGENE, published 2018).
Changes are numbered by the printed parent chain. Names may count otherwise. Where two headings read alike, the source gives them in different places.

B1: Murine mAb333 (antibody, V domains shown)
VH: QVQLKESGPGLVAPSQSLSITCTVSGFSLTSYGVHWVRQPPGKGLEWLGVIWAGGSTNYNSALMSRLSISKDNSKSQVVLKMNSLQTDDTAMYYCAKPYGNSAMDYWGQGTSVTVSS
VL: DILMTQSHKFMSTSVGDTVSITCKASQDVGIVVAWYQQKPGQSPKLLIYWASIRHTGVPDRFTGSGSGTDFTLTISNVQSEDLADYFCQQYSNYPLYTFGGGTKLEIK
notes: Murine hybridoma mAb; also called mu333; Mu333
B2: hu333-3C2 Fab (Fab, V domains shown)
VH: EVQLVESGGGLVQPGGSLRLSCAVSGFSLTSYGVHWVRQAPGKGLEWVAVIWAGGSTNYADSVKGRFTISKDNSKNTVYLQMNSLRAEDTAVYYCAKPYGNSAMDYWGQGTLVTVSS
VL: DIQMTQSPSSLSASVGDRVTITCKASQDVGIVVAWYQQKPGKAPKLLIYWASIRHTGVPSRFSGSGSGTEFTLTISSLQPDDFATYYCQQYSNYPLYTFGQGTKVEIK
notes: Human Fab format; constant parts not restated
B3: hu333-4B2 Fab (Fab, V domains shown)
VH: B2 VH with N73T, N101T
VL: B2 VL
notes: Human IgG1 Fab format: Vh fused to human IgG1-CH1 with C-terminal His6 tag, Vk fused to the constant region of kappa chain
B4: hu333-3H2 Fab (Fab, V domains shown)
VH: B2 VH with N73T
VL: B2 VL
notes: as for B2
B5: hu333-2B Fab (Fab, V domains shown)
VH: B2 VH with A60V, S74A, T77S
VL: B2 VL with S10T, V105L
notes: Human Fab format, His-tagged; constant parts not restated (as for hu333-1A)
B6: hu333-3A2 Fab (Fab, V domains shown)
VH: B2 VH with A60V, F67L, S74A
VL: B2 VL
notes: as for B2
B7: hu333-1A Fab (Fab, V domains shown)
VH: B2 VH with A60N, D61S, S62A, V63L, K64M, G65S, F67L, S74A, T77S
VL: B2 VL with S10T, V105L
notes: Human Fab format: Vh joined to human IgG2 CH1 with C232S and C233S (Kabat numbering) and a C-terminal 8xHis tag; Vk joined to the constant region of human kappa chain
B8: hu333-4A2 Fab (Fab, V domains shown)
VH: B2 VH with A60V, S74A, N101T
VL: B2 VL
notes: as for B3

What was measured:
[1] = target: T1, human PD-L1, full length, expressed on cells (human, UniProt Q9NZQ7 19-290); test: cell-based or functional assay
[2] = target: T1, human PD-L1, full length, expressed on …; test: cell-based or functional assay; remark: listed apart in the source
human PD-L1-ECD/His [3] = target: T2, human PD-L1-ECD/His (human, UniProt Q9NZQ7 19-238); test: ELISA on coated PD-L1/His
T2 construct: Expressed in 293-F cells; also called PD-L1/His; human PD-L1/His
Protocol: (§1) Briefly, 50-200 nanograms of PD-L1/His were diluted in 50 microliters of PBS and coated in each well of 96-well ELISA plates (JinCanHua, Shenzhen, China). After blocking with 3% bovine serum albumin in TBST (20 mM Tris, 150 mM NaCl, 0.05% Tween20, pH7.5) and incubating with culture supernatants of hybridoma clones, the HRP-conjugated horse anti-mouse IgG antibody (Cat. No. 7076S, Cell Signaling Technology) and tetramethylbenzidine (TMB) (Cat. No. PA107-01, TianGen, Beijing, China) were used to detect binding signals by a plate reader (PHREAstar, BMG Labtech, Germany) as light absorbance at 450 nm. The ELISA-positive clones were further verified by fluorescence-activated cell sorting (FACS). PD-L1 expression cells, HEK293/PD-L1 (10⁵ cells/well), were incubated with supernatants from hybridoma clones in V-bottom 96-well plates (Cat. No. 3897, Corning). The cell surface bound PD-L1 antibodies were detected with Dylight 649-conjugated goat anti-mouse IgG antibody (Cat. No. 405312, Biolegend, San Diego, Calif., USA) and cell fluorescence was monitored in a Guava EasyCyte 8HT flow cytometer (Millipore, USA).
(§2) The binding activities of the purified monoclonal antibodies were evaluated in ELISA and FACS assays as described in previous sections. The dose-dependent binding curves in ELISA and FACS were used to compare mAb potency.

[4] = target: T1, human PD-L1, full length, expressed on …; test: FACS on HEK293/PD-L1 cells
Protocol: as §1, §2

[5] = target: T1, human PD-L1, full length, expressed on …; test: FACS competition with biotin-PD-1/Fc on HEK293/PD-L1 cells
Description: Using this method, we evaluated functional strength of anti-PD-L1 mAbs.

[6] = target: T1, human PD-L1, full length, expressed on …; test: FACS competition with biotin-CD80/Fc on HEK293/PD-L1 cells
[7] = target: T1, human PD-L1, full length, expressed on …; test: cell-based or functional assay; remark: listed apart in the source
[8] = target: T1, human PD-L1, full length, expressed on …; test: FACS competition with biotin-CD80/Fc on HEK293/PD-L1 cells; remark: listed apart in the source
[9] = target: T1, human PD-L1, full length, expressed on …; test: FACS competition with biotin-PD-1/Fc on HEK293/PD-L1 cells; remark: listed apart in the source
human PD-L1-ECD/His [10] = target: T2, human PD-L1-ECD/His; test: SPR (BIAcore T-200), human PD-L1/His on CM5 chip, Fab injected
Protocol: (§3) For affinity determinations of anti-PD-L1 Fabs, SPR assays were performed using BIAcore™ T-200 (GE Life Sciences). Briefly, human PD-L1/His was coupled to an activated CM5 biosensor chip (Cat. No. BR100530, GE Life Sciences) to achieve approximately 100-200 response units (RU), followed by blocking un-reacted groups with 1M ethanolamine. A serial dilutions of 0.12 nM to 90 nM Fab samples were injected, mixed into the SPR running buffer (10 mM HEPES, 150 mM NaCl, 0.05% Tween20, pH7.4) at 30 μL/minute, and binding responses on human PD-L1/His were calculated by substracting of RU from a blank flow-cell. Association rates (kₒₙ) and dissociation rates (koff) were calculated using the one-to-one Langmuir binding model (BIA Evaluation Software, GE Life Sciences). The equilibrium dissociation constant (Kd) was calculated as the ratio koff/kₒₙ.
(§4) For affinity determinations of anti-PD-L1 Fabs, SPR assays were conducted using BIAcore™ T-200 instrument (GE Life Sciences, Shanghai, China) as described earlier. Association rates (kₒₙ) and dissociation rates (koff) were calculated using the one-to-one Langmuir binding model (BIA Evaluation Software, GE Life Sciences). The equilibrium dissociation constant (Kd) was calculated as the ratio koff/kₒₙ.

[11] = target: T1, human PD-L1, full length, expressed on …; test: cell-based or functional assay; remark: listed apart in the source
human PD-L1-ECD/His [12] = target: T2, human PD-L1-ECD/His; test: SPR (BIAcore T-200), human PD-L1, Fab injected
Protocol: as §3, §4

[13] = target: T3, cynomolgus monkey PD-L1/His (cynomolgus monkey (Macaca fascicularis), UniProt G7PSE7 19-238); test: SPR (BIAcore T-200), monkey PD-L1, Fab injected
T3 construct: extracellular domain; Said to be expressed and purified in a similar way to the human PD-L1/His (PD-L1-ECD/His); not shown: His tag

[14] = target: T1, human PD-L1, full length, expressed on …; test: FACS competition with biotin-CD80/Fc on HEK293/PD-L1 cells; remark: listed apart in the source
[15] = target: T1, human PD-L1, full length, expressed on …; test: FACS competition with biotin-PD-1/Fc on HEK293/PD-L1 cells; remark: listed apart in the source
[16] = target: T1, human PD-L1, full length, expressed on …; test: cell-based or functional assay; remark: listed apart in the source
[17] = target: T1, human PD-L1, full length, expressed on …; test: FACS competition with biotin-CD80/Fc on HEK293/PD-L1 cells; remark: listed apart in the source
human PD-L1-ECD/His [18] = target: T2, human PD-L1-ECD/His; test: SPR (BIAcore T-200), human PD-L1/His on CM5 chip, Fab injected; remark: listed apart in the source
Protocol: as §3

T3 sequence (G7PSE7 entry or part of it): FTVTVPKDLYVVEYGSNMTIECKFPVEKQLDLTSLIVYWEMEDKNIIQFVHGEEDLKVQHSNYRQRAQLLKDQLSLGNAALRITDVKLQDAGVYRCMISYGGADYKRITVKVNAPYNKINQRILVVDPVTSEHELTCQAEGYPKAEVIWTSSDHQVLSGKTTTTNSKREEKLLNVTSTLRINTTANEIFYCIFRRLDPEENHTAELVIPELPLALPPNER
T1 sequence (Q9NZQ7 19-290 limits assumed): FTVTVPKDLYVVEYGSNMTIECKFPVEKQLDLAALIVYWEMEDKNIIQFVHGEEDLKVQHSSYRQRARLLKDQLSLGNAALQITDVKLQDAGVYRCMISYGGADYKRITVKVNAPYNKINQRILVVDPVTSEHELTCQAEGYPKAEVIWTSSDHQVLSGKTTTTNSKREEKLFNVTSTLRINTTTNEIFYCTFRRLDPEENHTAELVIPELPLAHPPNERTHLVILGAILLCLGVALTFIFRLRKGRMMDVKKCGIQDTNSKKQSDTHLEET
T2 sequence (Q9NZQ7 19-238): as the sequence (G7PSE7 entry or part of it) above, with T33A, S34A, N62S, Q68R, R82Q, L173F, A185T, I192T, L215H counted along it

Row | Binder | IC50 [5] [µg/mL] | IL-2 release in HuT78/P3Z: IC50 [7] [µg/mL] | IL-2 release in HuT78/P3Z: Max inhibition [7] [%] | IL-2 release in HuT78/PD-1: EC50 [7] [µg/mL] | IL-2 release in HuT78/PD-1: Top line [7] [pg/mL] | IC50 [8] [µg/mL] | Max inhibition [8] [%] | IC50 [9] [µg/mL] | Max inhibition [9] [%] | Kd (human PD-L1-ECD/His [10]) [pM] | koff (human PD-L1-ECD/His [10]) [s⁻¹] | kon (human PD-L1-ECD/His [10]) [M⁻¹ s⁻¹] | also measured
1 | B1 | 0.463 | – | – | – | – | – | – | – | – | – | – | – | IL-2 release in HuT78/PD-1 cells co-cultured with HEK293/OS8/PD-L1 cells: EC50 [1]: 0.092 µg/mL; Inhibition of IL-2 secretion in HuT78/P3Z cells co-cultured with HEK293/PD-L1 cells: IC50 [2]: 0.021 µg/mL; EC50 (human PD-L1-ECD/His [3]): 0.036 µg/mL; EC50 [4]: 0.099 µg/mL; IC50 [6]: 0.052 µg/mL
2 | B2 | – | 0.013 | 100 | 0.046 | 3120 | 0.073 | 99 | 0.065 | 100 | 8.09 | 1.15e-05 | 1.42e+06 | –
3 | B3 | – | – | – | – | – | – | – | – | – | 3.5 | 1.32e-05 | 3.78e+06 | IL-2 release in HuT78/P3Z: IC50 [11]: 0.016 µg/mL; IL-2 release in HuT78/PD-1: EC50 [11]: 0.058 µg/mL; Kd (human PD-L1-ECD/His [12]): 3.5 pM; koff (human PD-L1-ECD/His [12]): 1.32e-05 s⁻¹; kon (human PD-L1-ECD/His [12]): 3.78e+06 M⁻¹ s⁻¹; Kd [13]: 2.5 pM; koff [13]: 8e-06 s⁻¹; kon [13]: 3.2e+06 M⁻¹ s⁻¹; IC50 [14]: 0.062 µg/mL; IC50 [15]: 0.053 µg/mL
4 | B4 | – | 0.014 | 100 | 0.057 | 3020 | 0.064 | 99 | 0.071 | 100 | 34.9 | 4.61e-05 | 1.32e+06 | –
5 | B5 | 0.062 | – | – | – | – | – | – | – | – | – | – | – | IL-2 release in HuT78/P3Z: IC50 [16]: 0.011 µg/mL; IL-2 release in HuT78/PD-1: EC50 [16]: 0.054 µg/mL; IC50 [17]: 0.055 µg/mL; Kd (human PD-L1-ECD/His [18]): 1.54 pM; koff (human PD-L1-ECD/His [18]): 2.09e-06 s⁻¹; kon (human PD-L1-ECD/His [18]): 1.36e+06 M⁻¹ s⁻¹
6 | B6 | – | 0.014 | 95 | 0.057 | 2550 | 0.044 | 99 | 0.068 | 100 | 0.17 | 2.2e-07 | 1.28e+06 | –
7 | B7 | 0.057 | – | – | – | – | – | – | – | – | – | – | – | IL-2 release in HuT78/P3Z: IC50 [16]: 0.012 µg/mL; IL-2 release in HuT78/PD-1: EC50 [16]: 0.066 µg/mL; IC50 [17]: 0.049 µg/mL; Kd (human PD-L1-ECD/His [18]): 9.88 pM; koff (human PD-L1-ECD/His [18]): 1.59e-05 s⁻¹; kon (human PD-L1-ECD/His [18]): 1.61e+06 M⁻¹ s⁻¹
8 | B8 | – | – | – | – | – | – | – | – | – | 2.65 | 1.03e-05 | 3.88e+06 | IL-2 release in HuT78/P3Z: IC50 [11]: 0.005 µg/mL; IL-2 release in HuT78/PD-1: EC50 [11]: 0.05 µg/mL; Kd (human PD-L1-ECD/His [12]): 2.65 pM; koff (human PD-L1-ECD/His [12]): 1.03e-05 s⁻¹; kon (human PD-L1-ECD/His [12]): 3.88e+06 M⁻¹ s⁻¹; Kd [13]: 2.91 pM; koff [13]: 9.3e-06 s⁻¹; kon [13]: 3.19e+06 M⁻¹ s⁻¹; IC50 [14]: 0.045 µg/mL; IC50 [15]: 0.05 µg/mL
